This note sets out measurements from paper PMC7090148 (2020).

The experiment has as its target NTAP-tagged TRAPPC8. In words: co-IP (IP: anti-Myc, immunoblot). To be noted: 0.5% input, parent: 1. (In general: Immunoblotting shows a protein as a band on a membrane.)

For “Mouse OFD1, wild type (from UniProt Q80Z25) A80T”, the ratio to parent came out at 1.04.

Regarding “Mouse OFD1, wild type (from UniProt Q80Z25) G139S”, the ratio to parent was determined as 1.

Take “Mouse OFD1, wild type (from UniProt Q80Z25) S75F”: the ratio to parent was 0.7. With “Mouse OFD1, wild type (from UniProt Q80Z25) S437R” the figure was 1.02.
